The values that follow come from PMC1885668.

One data set has as its target T1, TREX2BD (human, UniProt Q9BQ50 1-236, R163A;R165A;R167A).
T1 sequence: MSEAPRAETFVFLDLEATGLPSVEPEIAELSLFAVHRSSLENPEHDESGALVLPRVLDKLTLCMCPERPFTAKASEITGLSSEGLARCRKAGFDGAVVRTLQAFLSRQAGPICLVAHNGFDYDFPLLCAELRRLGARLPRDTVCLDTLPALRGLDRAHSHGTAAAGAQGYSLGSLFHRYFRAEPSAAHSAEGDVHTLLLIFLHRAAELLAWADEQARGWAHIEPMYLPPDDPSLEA
Put plainly: SPR. (In general: Surface plasmon resonance follows binding to a sensor surface in real time, without labels.)

Another data set deals with T2, TREX2DD (human, UniProt Q9BQ50 1-236, E29A;K59A;D94A;R107A;E191A).
T2 sequence: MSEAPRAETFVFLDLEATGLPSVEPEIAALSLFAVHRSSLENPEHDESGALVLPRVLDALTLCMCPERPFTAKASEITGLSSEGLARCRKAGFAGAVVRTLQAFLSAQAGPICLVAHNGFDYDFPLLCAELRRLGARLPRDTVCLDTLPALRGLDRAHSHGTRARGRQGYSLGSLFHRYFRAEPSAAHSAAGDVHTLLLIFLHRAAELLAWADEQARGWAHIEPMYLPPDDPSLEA
Put plainly: SPR.

In the case of GTATGAGCTGCAGTTCCTCAGCAT (ssDNA) [Biotin-mTX1-322 (24-mer)], the binding result with TREX2BD and with TREX2DD was “no binding” throughout.
